Measurements reported in patent publication US20030166850A1 (Pfizer, published 2003).

B1: EVT ΔC54 (C terminal deletion mutant of evectin) (other)
chain: MALVRGGWLWRQSSILRRWKRNWFALWLDGTLGYYHDETAQDEEDRVLIHFNVRDIKIGPECHDVQPPEGRSRDGLLTVNLREGGRLHLCAETKDDALAWKTALLEANSTPVRVYSPYQDYYEVVPPNAHEATYVR
B2: evectin clone discovered in the yeast two-hybrid screen (amino acids 101-190) (other)
chain: KTALLEANSTPVRVYSPYQDYYEVVPPNAHEATYVRSYYGPPYAGPGVTHVIVREDPCYSAGAPLAMGMLAGAATGAALGSLMWSPCWF
notes: Prey clone from the pretransformed human fetal brain library (Clontech); also called latter half of the evectin protein

What was measured:
[1] = molecular target: T1, proline rich domain of RGS9-2, amino acids 460-672 of human RGS9 (bait, plasmid pAS1-RGS9CT) (human, UniProt O75916 463-674); test: yeast two-hybrid assay
T1 sequence: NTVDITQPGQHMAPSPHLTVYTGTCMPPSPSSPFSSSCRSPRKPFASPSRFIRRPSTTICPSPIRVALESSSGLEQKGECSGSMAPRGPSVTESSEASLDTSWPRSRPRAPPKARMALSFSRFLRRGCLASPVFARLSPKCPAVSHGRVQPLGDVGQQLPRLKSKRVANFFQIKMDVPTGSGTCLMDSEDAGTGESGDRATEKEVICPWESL
Source text: (§1) To identify interactors of the proline rich domain of RGS9, amino acids 460-672 of human RGS9 (FIG. 1A), was used as “bait” to screen a pretransformed human fetal brain library (Clontech). The RGS9-2 cDNA used was cloned by PCR from a human brain cDNA library using the primers 5′ primer: […], 3′ primer: […]. The DNA encoding amino acids 460-672 of RGS9-2, was amplified by PCR using the primer sequences 5′ […] and 3′ […] and ligated into the NdeI and BamH 1 sites of pAS1 (Clontech). The pAS1-RGS9CT plasmid was used to transform the yeast strain PJ69-2A (Clontech) using lithium acetate. The library was screened using a yeast mating protocol by incubating the library (MATα) with the bait strain ([…]) overnight at 30° C. according to the manufacturer's protocols. The mating mixture was plated on SD/-His/-Leu/-Trp and incubated at 30° C. until colonies appeared. Colonies were picked and miniprep DNA prepared. The insert in the library plasmid was amplified using the LD-Insert Screening amplimer set of primers (Clontech) and the amplicon sequenced on an ABI 3700 capillary sequencer. The sequences obtained were used as queries against the GENBANK database using BLAST. The 6 most common hits were selected for further study and were replated on SD/-His/-Leu/-Trp containing 0-40 mM […]. […]

[2] = molecular target: T1, proline rich domain of RGS9-2, amino …; test: yeast two-hybrid screen of a human fetal brain library
Source text: as §1

| Binder | binding result [1] | binding result [2] |
| --- | --- | --- |
| B1 | binds | – |
| B2 | – | binds |
